Assay results as given in patent US20220119534A1 (DRAGONFLY THERAPEUTICS, published 2022).
One block for each binder: values may come before it.

Legend:
[1] = biological target: T1, human CLEC12A expressed on cells (human, UniProt Q5QGZ9 1-265); experiment: flow cytometry on PL-21 cells, fold over background
T1 construct: Transduced isogenic cells or endogenous expression on AML cells; also called RMA-hCLEC12A; Ba/F3-hCLEC12A
T1 sequence: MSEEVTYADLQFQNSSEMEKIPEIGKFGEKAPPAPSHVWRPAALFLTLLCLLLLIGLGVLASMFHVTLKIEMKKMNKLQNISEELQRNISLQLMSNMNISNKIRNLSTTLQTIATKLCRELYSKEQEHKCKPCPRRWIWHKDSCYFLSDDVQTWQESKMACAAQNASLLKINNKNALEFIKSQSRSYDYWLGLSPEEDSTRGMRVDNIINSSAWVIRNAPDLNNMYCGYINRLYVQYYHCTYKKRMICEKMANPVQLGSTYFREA
Procedure: (§1) The cells were then incubated with a fluorophore conjugated anti-human IgG secondary antibody and were analyzed by flow cytometry. The mean fluorescence intensity (MFI) values were normalized to secondary antibody only controls to obtain fold over background (FOB) values.
100,000 cells were seeded per well into a 96-well plate for FACS staining. Cells were washed with PBS. Cells were incubated in a 1:2000 dilution of live/dead dye in PBS for 15 minutes, then washed with FACS buffer. TriNKETs or mAbs were diluted into FACS buffer, and 50 μl containing diluted TriNKET or mAb was added to cells. Cells were incubated on ice for 20 minutes. After the incubation, cells were washed with FACS buffer. Anti-human IgG-Fc secondary antibody was diluted into FACS buffer, and 50 μl was added per well for detection of the bound TriNKETs or mAbs. Cells were incubated for 20 minutes on ice, then washed with FACS buffer. 50 μl of fixation buffer was added to each well, and cells were incubated for 10 minutes at room temperature. […] Within the live gate, the mean fluorescence intensity (MFI) of each sample and the secondary-only control was calculated. Fold-over-background (FOB) was calculated as the ratio of test article MFI over secondary-only background MFI. […]

[2] = biological target: T2, recombinant cynomolgus CLEC12A-His (cynomolgus monkey, UniProt A0A2K5WXQ4 71-271); experiment: SPR 37C
T2 construct: also called cCLEC12A-His; cCLEC12A
T2 sequence: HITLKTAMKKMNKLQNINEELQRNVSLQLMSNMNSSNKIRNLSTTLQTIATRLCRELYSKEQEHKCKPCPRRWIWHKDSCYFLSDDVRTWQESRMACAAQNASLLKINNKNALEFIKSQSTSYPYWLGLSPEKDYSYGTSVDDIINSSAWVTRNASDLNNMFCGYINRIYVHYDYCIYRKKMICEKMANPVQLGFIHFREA

[3] = biological target: T3, recombinant human CLEC12A-His (human, UniProt Q5QGZ9 65-265); experiment: SPR, CLEC12A binding
T3 construct: also called hCLEC12A-His; hCLEC12A
T3 sequence: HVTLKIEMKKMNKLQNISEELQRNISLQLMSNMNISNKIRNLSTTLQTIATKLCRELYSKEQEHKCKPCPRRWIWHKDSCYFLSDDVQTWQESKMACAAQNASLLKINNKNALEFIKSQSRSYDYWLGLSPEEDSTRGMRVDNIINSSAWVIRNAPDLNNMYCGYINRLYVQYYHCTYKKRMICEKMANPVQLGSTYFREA

[4] = biological target: T4, recombinant human CD16b (human, UniProt O75015 17-200, limits assumed, biotinylated); experiment: SPR
T4 construct: also called FcγRIIIb

[5] = biological target: T5, recombinant human CD16a V158 (human, UniProt P08637 17-208, biotinylated); experiment: SPR
T5 construct: also called FcγRIIIa V158; hCD16aV

[6] = biological target: T1, human CLEC12A expressed on cells; experiment: flow cytometry on CLEC12A+ PL-21 AML cells
[7] = biological target: T3, recombinant human CLEC12A-His; experiment: SPR screening, semi-purified
[8] = biological target: T1, human CLEC12A expressed on cells; experiment: flow cytometry, hCLEC12A+ Ba/F3
[9] = biological target: T3, recombinant human CLEC12A-His; experiment: SPR; sensorgrams of a CLEC12A concentration series with fit overlays (response up to about 28, time axis 0 to about 900)
[10] = biological target: T1, human CLEC12A expressed on cells; experiment: flow cytometry on HL-60 cells, fold over background
Procedure: as §1
100,000 cells were seeded per well into a 96-well plate for FACS staining. Cells were washed with PBS. Cells were incubated in a 1:2000 dilution of live/dead dye in PBS for 15 minutes, then washed with FACS buffer. TriNKETs or mAbs were diluted into FACS buffer, and 50 μl containing diluted TriNKET or mAb was added to cells. Cells were incubated on ice for 20 minutes. After the incubation, cells were washed with FACS buffer. Anti-human IgG-Fc secondary antibody was diluted into FACS buffer, and 50 μl was added per well for detection of the bound TriNKETs or mAbs. Cells were incubated for 20 minutes on ice, then washed with FACS buffer. 50 μl of fixation buffer was added to each well, and cells were incubated for 10 minutes at room temperature. Cells were washed with FACS buffer and resuspended in FACS buffer for analysis with BD FACS Celesta SN #H66034400085, or BD FACS Celesta SN #H66034400160. Cells of interest were identified using FSC vs. SSC plot, and an appropriately shaped gate was drawn around the cells. Within the gated cells, doublet cells were removed by viewing FSC-H vs FSC-A plot. Within the single cell population, live cells were gated. Within the live gate, the mean fluorescence intensity (MFI) of each sample and the secondary-only control was calculated. Fold-over-background (FOB) was calculated as the ratio of test article MFI over secondary-only background MFI. Data were fit to a four-parameter non-linear regression curve using GraphPad Prism 7.0.

[11] = biological target: T1, human CLEC12A expressed on cells; experiment: flow cytometry, HL60
[12] = biological target: T1, human CLEC12A expressed on cells; experiment: flow cytometry (MFI) on CLEC12A+ PL21 AML cells, about 0.04 to 27 nM, plateau about 1150 MFI; the molecule is assigned by panel order and legend paragraph 296
[13] = biological target: T3, recombinant human CLEC12A-His; experiment: SPR
[14] = biological target: T6, human CLEC12A-K244Q-His (human, UniProt Q5QGZ9 65-265); experiment: SPR
T6 construct: Polymorphic variant; also called hCLEC12A-K244Q; CLEC12A (Q244)
T6 chain: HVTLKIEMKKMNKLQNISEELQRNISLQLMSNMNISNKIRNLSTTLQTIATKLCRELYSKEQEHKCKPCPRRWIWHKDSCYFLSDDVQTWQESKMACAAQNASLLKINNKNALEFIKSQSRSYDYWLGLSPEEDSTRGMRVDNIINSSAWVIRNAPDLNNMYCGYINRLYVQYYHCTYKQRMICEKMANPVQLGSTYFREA

[15] = biological target: T3, recombinant human CLEC12A-His; experiment: SPR screening, fully purified mAb
[16] = biological target: T7, cynomolgus CLEC12A expressed on RMA cells (cynomolgus monkey, UniProt A0A2K5WXQ4 7-271); experiment: flow cytometry, RMA-cCLEC12A, hybridoma supernatant
T7 construct: whole, on cells; also called cCLEC12A isogenic cell line
T7 sequence: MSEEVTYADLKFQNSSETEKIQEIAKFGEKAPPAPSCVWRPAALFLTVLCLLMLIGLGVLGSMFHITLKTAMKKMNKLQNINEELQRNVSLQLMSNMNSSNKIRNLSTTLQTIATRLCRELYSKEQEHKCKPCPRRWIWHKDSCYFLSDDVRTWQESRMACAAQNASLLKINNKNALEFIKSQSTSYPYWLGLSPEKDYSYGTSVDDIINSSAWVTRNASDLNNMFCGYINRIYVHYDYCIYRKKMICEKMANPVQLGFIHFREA
Procedure: Briefly, RMA cells were transducted with a retroviral vector encoding cCLEC12A or hCLEC12A. […] 100,000 RMA, REH or SEM cells were added per well of a 96 well round bottom plate. Cells were spun down and the pellet was gently dissociated by vortexing. 100 μL of Zombie live/dead dye (PBS+1:2000 dye) were added per well and incubated in the dark at room temperature for 20 minutes. Cells were washed with 200 μL of FACS buffer (PBS+2% FBS). 50 μL of hybridoma supernatants were added to the washed cells and the mixtures were incubated for 30 minutes on ice in the dark. Cells were washed twice with FACS buffer and then 50 μL of anti-mouse Fc-PE secondary reagent (1:200 dilution) were added and incubated for 20 minutes on ice in the dark. After the incubation, the cells were washed and then fixed with 50 μL of 4% paraformaldehyde for 15 minutes on ice. The fixed cells were washed with FACS buffer, resuspended in 200 μL FACS buffer, and stored at 4° C. until ready for acquisition. The samples of cells resuspended in FACS buffer were run on BD FACSCelesta equipped with an HTS (high throughput sampler) to determine the binding affinities of the antibodies to isogenic RMA cells expressing CLEC12A and the U937 AML cancer cell line.

[17] = biological target: T3, recombinant human CLEC12A-His; experiment: SPR, purified murine mAb
[18] = biological target: T8, de-sialylated hCLEC12A (human, UniProt Q5QGZ9 65-265, terminal sialic acids removed (neuraminidase)); experiment: SPR
T8 construct: also called De-sialylated CLEC12A
T8 sequence: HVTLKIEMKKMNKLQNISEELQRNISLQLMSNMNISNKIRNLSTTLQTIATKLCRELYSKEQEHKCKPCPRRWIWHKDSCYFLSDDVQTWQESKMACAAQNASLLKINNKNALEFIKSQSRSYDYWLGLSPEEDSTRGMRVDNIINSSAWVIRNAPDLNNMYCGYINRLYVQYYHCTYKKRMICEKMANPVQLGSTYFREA

[19] = biological target: T3, recombinant human CLEC12A-His; experiment: SPR; remark: listed apart in the source
[20] = biological target: T9, de-glycosylated hCLEC12A (human, UniProt Q5QGZ9 65-265, N-linked glycans removed (PNGase F)); experiment: SPR
T9 construct: also called PNGase-treated hCLEC12A; De-glycosylated CLEC12A
T9 sequence: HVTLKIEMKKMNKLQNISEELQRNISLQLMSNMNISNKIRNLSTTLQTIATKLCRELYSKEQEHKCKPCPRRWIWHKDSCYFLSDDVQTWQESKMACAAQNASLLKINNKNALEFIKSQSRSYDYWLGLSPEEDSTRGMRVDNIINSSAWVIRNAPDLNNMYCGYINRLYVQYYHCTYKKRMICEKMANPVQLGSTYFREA

[21] = biological target: T1, human CLEC12A expressed on cells; experiment: flow cytometry, PL21 cells
Procedure: The ability of the eight purified subcloned mAbs to bind to CLEC12A expressing cells was assessed by FACS analysis with human CLEC12A-positive PL21 cancer cell line.

[22] = biological target: T3, recombinant human CLEC12A-His; experiment: SPR, CLEC12A binding; remark: listed apart in the source
[23] = biological target: T1, human CLEC12A expressed on cells; experiment: flow cytometry (gMFI) on CLEC12A+ PL-21 AML cells
[24] = biological target: T2, recombinant cynomolgus CLEC12A-His; experiment: SPR, purified murine subclone mAb and Cyno CLEC12A-His

T5 sequence (P08637 17-208 F176V limits assumed): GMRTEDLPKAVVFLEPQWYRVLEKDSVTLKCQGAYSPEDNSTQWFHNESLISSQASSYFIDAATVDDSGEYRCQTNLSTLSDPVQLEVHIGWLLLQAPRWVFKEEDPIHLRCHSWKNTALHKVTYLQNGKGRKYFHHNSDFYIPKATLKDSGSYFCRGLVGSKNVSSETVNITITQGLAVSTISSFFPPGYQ
T4 sequence (O75015 17-200 limits assumed): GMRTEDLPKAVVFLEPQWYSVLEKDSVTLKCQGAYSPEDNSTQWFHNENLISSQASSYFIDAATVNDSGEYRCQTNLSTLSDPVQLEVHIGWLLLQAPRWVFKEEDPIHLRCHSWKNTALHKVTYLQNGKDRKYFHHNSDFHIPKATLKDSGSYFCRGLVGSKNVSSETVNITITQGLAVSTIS

EC50 (read off the curve) [1]: ~0.5 nM
binding result [2]: no binding (tested: 100 nM)
Kd [3]: 0.8 nM
fold difference in affinity vs trastuzumab [4]: 2.3 fold
fold difference in affinity vs trastuzumab [5]: 3.8 fold
EC50 [6]: 0.45 nM
B1: AB0089 TriNKET (other)
chain: QLQLQESGPGLVKPSETLSLTCTVSGFSLTNYGLHWIRQPPGKCLEWIGVIWVGGATDYNPSLKSRVTISVDTSKNQFSLKLSSVQAADTAVYYCAKGDYGDTLDYWGQGTLVTVSSGGGGSGGGGSGGGGSGGGGSDIQMTQSPSSLSASVGDRVTITCHASQNINFWLSWYQQKPGKAPKLLIYEASNLHTGVPSRFSGSGSGTDFTLTISSLQPEDFATYYCQQSHSYPLTFGCGTKLEIKGSDKTHTCPPCPAPELLGGPSVFLFPPKPKDTLMISRTPEVTCVVVDVSHEDPEVKFNWYVDGVEVHNAKTKPREEQYNSTYRVVSVLTVLHQDWLNGKEYKCKVSNKALPAPIEKTISKAKGQPREPRVYTLPPCRDELTKNQVSLTCLVKGFYPSDIAVEWESNGQPENNYKTTPPVLVSDGSFTLYSKLTVDKSRWQQGNVFSCSVMHEALHNHYTQKSLSLSPG
heavy: EVQLVESGGGLVKPGGSLRLSCAASGFTFSSYSMNWVRQAPGKGLEWVSSISSSSSYIYYADSVKGRFTISRDNAKNSLYLQMNSLRAEDTAVYYCARGAPIGAAAGWFDPWGQGTLVTVSSASTKGPSVFPLAPSSKSTSGGTAALGCLVKDYFPEPVTVSWNSGALTSGVHTFPAVLQSSGLYSLSSVVTVPSSSLGTQTYICNVNHKPSNTKVDKKVEPKSCDKTHTCPPCPAPELLGGPSVFLFPPKPKDTLMISRTPEVTCVVVDVSHEDPEVKFNWYVDGVEVHNAKTKPREEQYNSTYRVVSVLTVLHQDWLNGKEYKCKVSNKALPAPIEKTISKAKGQPREPQVCTLPPSRDELTENQVSLTCLVKGFYPSDIAVEWESNGQPENNYKTTPPVLDSDGSFFLYSWLTVDKSRWQQGNVFSCSVMHEALHNHYTQKSLSLSPG
light: DIQMTQSPSSVSASVGDRVTITCRASQGISSWLAWYQQKPGKAPKLLIYAASSLQSGVPSRFSGSGSGTDFTLTISSLQPEDFATYYCQQGVSFPRTFGGGTKVEIKRTVAAPSVFIFPPSDEQLKSGTASVVCLLNNFYPREAKVQWKVDNALQSGNSQESVTEQDSKDSTYSLSSTLTLSKADYEKHKVYACEVTHQGLSSPVTKSFNRGEC

Kd [7]: 1.26 nM
koff [7]: 0.00138 s⁻¹
kon [7]: 1.09e+06 M⁻¹ s⁻¹
binding result [2]: no binding (tested: 100 nM)
EC50 [8]: 0.7 nM
Max binding MFI [8]: 10200 MFI
Kd [9]: 1.66 nM
EC50 (read off the curve) [10]: ~1 nM
EC50 [11]: 0.6 nM
Max binding MFI [11]: 503 MFI
EC50 [12]: 0.27 nM
Kd [13]: 1.2 nM
fold difference in affinity vs CLEC12A WT [14]: ≤ 2.5 fold
fold difference in affinity vs trastuzumab [5]: ~2 fold
B2: AB0192 TriNKET (other)
chain: EVQLVESGGGVVQPGGSLRLSCAASGFTFNAFGMHWVRQAPGKCLEWVAFISSGSTSIYYANTVKGRFTISRDNSKNTLYLQMNSLRAEDTAVYYCARDGYPTGGAMDYWGQGTSVTVSSGGGGSGGGGSGGGGSGGGGSDIQMTQSPSSLSASVGDRVTITCKASQDIYNYLSWFQQKPGKAPKPLIYRANILVSGVPSRFSGSGSGQDYTFTISSLQPEDIATYYCLQFDAFPFTFGCGTKLEIKGSDKTHTCPPCPAPELLGGPSVFLFPPKPKDTLMISRTPEVTCVVVDVSHEDPEVKFNWYVDGVEVHNAKTKPREEQYNSTYRVVSVLTVLHQDWLNGKEYKCKVSNKALPAPIEKTISKAKGQPREPRVYTLPPCRDELTKNQVSLTCLVKGFYPSDIAVEWESNGQPENNYKTTPPVLVSDGSFTLYSKLTVDKSRWQQGNVFSCSVMHEALHNHYTQKSLSLSPG
heavy: EVQLVESGGGLVKPGGSLRLSCAASGFTFSSYSMNWVRQAPGKGLEWVSSISSSSSYIYYADSVKGRFTISRDNAKNSLYLQMNSLRAEDTAVYYCARGAPIGAAAGWFDPWGQGTLVTVSSASTKGPSVFPLAPSSKSTSGGTAALGCLVKDYFPEPVTVSWNSGALTSGVHTFPAVLQSSGLYSLSSVVTVPSSSLGTQTYICNVNHKPSNTKVDKKVEPKSCDKTHTCPPCPAPELLGGPSVFLFPPKPKDTLMISRTPEVTCVVVDVSHEDPEVKFNWYVDGVEVHNAKTKPREEQYNSTYRVVSVLTVLHQDWLNGKEYKCKVSNKALPAPIEKTISKAKGQPREPQVCTLPPSRDELTENQVSLTCLVKGFYPSDIAVEWESNGQPENNYKTTPPVLDSDGSFFLYSWLTVDKSRWQQGNVFSCSVMHEALHNHYTQKSLSLSPG
light: DIQMTQSPSSVSASVGDRVTITCRASQGISSWLAWYQQKPGKAPKLLIYAASSLQSGVPSRFSGSGSGTDFTLTISSLQPEDFATYYCQQGVSFPRTFGGGTKVEIKRTVAAPSVFIFPPSDEQLKSGTASVVCLLNNFYPREAKVQWKVDNALQSGNSQESVTEQDSKDSTYSLSSTLTLSKADYEKHKVYACEVTHQGLSSPVTKSFNRGEC
notes: Humanized 9F11.B7 scFv-Fc, A49MI Fab-Fc

Kd [15]: 0.008 nM
koff [15]: 2.35e-05 s⁻¹
kon [15]: 3.03e+06 M⁻¹ s⁻¹
binding result [16]: no binding
Kd [17]: 0.01 nM
koff [17]: 4.44e-05 s⁻¹
kon [17]: 4.05e+06 M⁻¹ s⁻¹
Kd [18]: 0.007 nM
koff [18]: 3.62e-05 s⁻¹
kon [18]: 5.25e+06 M⁻¹ s⁻¹
Kd [19]: 0.012 nM
koff [19]: 4.7e-05 s⁻¹
kon [19]: 4.05e+06 M⁻¹ s⁻¹
Kd [20]: 0.011 nM
koff [20]: 4.45e-05 s⁻¹
kon [20]: 4.26e+06 M⁻¹ s⁻¹
EC50 [21]: 0.18 nM
Max MFI [21]: 300 MFI
Kd [22]: ≤ 0.011 nM
EC50 [23]: 0.2 nM
binding result [24]: no binding
B3: 16B8.C8 (antibody, V domains shown)
VH: EVQLQESGPGLVQPSQSLSITCTVSGFSLTNYGLHWVRQSPGKGLEWLGVIWSGGKTDYNTPFKSRLSISKDISKNQVFFKMNSLQPNDTAIYFCAKYDYDDSLDYWGQGTSVTVSS
VL: DIQMNQSPSSLSASLGDTIAITCHASQNINFWLSWYQQKPGNIPKLLIYEASNLHTGVPSRFSGSGSGTRFTLTISSLQPEDIATYYCQQSHSYPLTFGQGTKLEIK
notes: Murine mAb; also called 16B08; m16B8.C8
